Reference: the supplement of paper PMC7877785
± gives the uncertainty stated by the source.

Assay: self-splicing fitness, log relative to wild type (ln ratio); higher = more splicing; Tetrahymena group I intron in knt gene, E. coli kanamycin selection, DiMSum; sequences stand for … in CUCUCU…GGAGGGAAAAGUUAUCAGGCAUGCACCUGGUAGCUAGUCUUUAAACCAAUAGAUUGCAUCGGUUUAAAAGGCAAGACCGUCAAAUUGCGGGAAAGGGGUCAACAGCCGUUCAGUACCAAGUCUCAGGGGAAACUUUGAGAUGGCCUUGCAAAGGGUAUGGUAAUAAGCUGACGGACAUGGUCCUAACCACGCAGCCAAGUCCUAAGUCAACAGAUCUUCUGUUGAUAUGGAUGCAGUUCACAGACUAAAUGUCGGUCGGGGAAGAUGUAUUCUUCUCAUAAGAUAUAGUCGGACCUCUCCUUAAUGGGAGCUAGCGGAUGAAGUGAUGCAACACUGGAGCCGCUGGGAACUAAUUUGUAUGCGAAAGUAUAUUGAUUAGUUUUGGAGUACUCGUGGUCG
Outline: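 DiMSum derived fitness as the error-weighted combination of fold changes across replicates, kanamycin versus no kanamycin, normalised to wild type. E. coli BL21(DE3) held the library, which randomised all eight P1ex-region intron nucleotides within the knt kanamycin-resistance gene on pET-22b(+). Six replicate transformations grew overnight at 37°C or 30°C on LB agar with or without 25 μg/mL kanamycin, also containing 100 μg/mL carbenicillin, 50 μM IPTG and 0.2% rhamnose, and pooled colonies were amplicon-sequenced on an Illumina HiSeq 2500.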

Row | Sequence | self-splicing fitness (ln) (30 °C) | self-splicing fitness (ln) (37 °C)
1 | AAGUAGCAAUAUUACGCUGA | -1.36 ± 0.15 | -0.457 ± 0.14
2 | CACUAGCAAUAUUACGGGCG | -0.464 ± 0.087 | -0.0972 ± 0.084
3 | UUAAAGCAAUAUUACGUGCG | -0.23 ± 0.058 | -0.242 ± 0.085
4 | AGGAAGCAAUAUUACGAGAU | -4.23 ± 0.26 | -1.1 ± 0.13
5 | GUUUAGCAAUAUUACGCGGC | -1.26 ± 0.49 | –
6 | AGAAAGCAAUAUUACGCUCG | 0.431 ± 0.14 | 0.318 ± 0.18
7 | CAUUAGCAAUAUUACGAUGC | – | -3.61 ± 0.42
8 | CGACAGCAAUAUUACGAUCG | -3.43 ± 0.2 | -2.11 ± 0.2
9 | UAGGAGCAAUAUUACGAAAC | -3.33 ± 0.42 | -2.28 ± 0.5
10 | UCUGAGCAAUAUUACGGUAU | -2.41 ± 0.18 | -2.5 ± 0.44
11 | ACGUAGCAAUAUUACGAAUG | -2.89 ± 0.13 | -1.53 ± 0.12
12 | ACGCAGCAAUAUUACGGCAC | -0.763 ± 0.077 | -0.602 ± 0.11
13 | UUUCAGCAAUAUUACGAUUU | -1.34 ± 0.098 | -0.0319 ± 0.12
14 | AAAAAGCAAUAUUACGGCCG | -0.279 ± 0.092 | 0.159 ± 0.13
15 | CAUCAGCAAUAUUACGACGG | -0.186 ± 0.085 | -0.0315 ± 0.1
16 | AGACAGCAAUAUUACGAUGU | -3.43 ± 0.12 | -0.886 ± 0.088
17 | UCACAGCAAUAUUACGAUAC | -3.87 ± 0.26 | -2.75 ± 0.35
18 | ACACAGCAAUAUUACGCAGC | -3.73 ± 0.19 | -2.47 ± 0.17
19 | CAGAAGCAAUAUUACGUCUG | -3.35 ± 0.16 | -3.09 ± 0.21
20 | ACAAAGCAAUAUUACGUCUC | -4.03 ± 0.18 | -2.09 ± 0.14
21 | GGUGAGCAAUAUUACGGCUU | -1.7 ± 0.16 | -0.614 ± 0.17
22 | GUCUAGCAAUAUUACGUAUC | -0.834 ± 0.08 | 0.353 ± 0.11
23 | GGACAGCAAUAUUACGGACU | -1.01 ± 0.079 | -0.461 ± 0.09
24 | AAUUAGCAAUAUUACGACGC | -1.08 ± 0.14 | -0.792 ± 0.13
25 | ACGCAGCAAUAUUACGCCAG | -2.82 ± 0.22 | -2.07 ± 0.28

Row | Sequence | self-splicing fitness (ln) (30 °C) | self-splicing fitness (ln) (37 °C)
26 | GAAGAGCAAUAUUACGCGGC | -2.37 ± 0.27 | -1.8 ± 0.33
27 | CAAUAGCAAUAUUACGAUCC | -2.68 ± 0.46 | –
28 | GAGGAGCAAUAUUACGUGAG | -3.37 ± 0.4 | -2.22 ± 0.26
29 | UUUGAGCAAUAUUACGUCUG | -2.41 ± 0.24 | -0.733 ± 0.21
30 | GCAAAGCAAUAUUACGUGCU | -3.46 ± 0.12 | -2.73 ± 0.17
31 | AACAAGCAAUAUUACGCAUC | -2.41 ± 0.15 | -1.77 ± 0.18
32 | GGUUAGCAAUAUUACGUUUG | -4.51 ± 0.34 | -1.42 ± 0.17
33 | UGCCAGCAAUAUUACGGAUU | -1.67 ± 0.068 | -0.242 ± 0.074
34 | AAGGAGCAAUAUUACGAGAA | -3.76 ± 0.42 | -2.22 ± 0.24
35 | AGAGAGCAAUAUUACGGCGC | – | -2.13 ± 0.35
36 | CUGGAGCAAUAUUACGGGGU | -3.12 ± 0.31 | -1.53 ± 0.27
37 | CACAAGCAAUAUUACGUGGU | -4.1 ± 0.17 | -2.66 ± 0.19
38 | AUUUAGCAAUAUUACGCGAA | -3.01 ± 0.21 | -0.549 ± 0.16
39 | GAAGAGCAAUAUUACGCCGG | -2.66 ± 0.18 | -2.5 ± 0.29
40 | GGGCAGCAAUAUUACGAAAA | -2.12 ± 0.38 | -2.31 ± 0.4
41 | CGGAAGCAAUAUUACGAGUA | – | -2.86 ± 0.29
42 | UAACAGCAAUAUUACGGCUG | -2.55 ± 0.095 | -0.978 ± 0.12
43 | GGUCAGCAAUAUUACGUACG | 0.123 ± 0.08 | -0.609 ± 0.082
44 | UGUUAGCAAUAUUACGCCGC | -3.34 ± 0.45 | –
45 | UAAUAGCAAUAUUACGCUUA | -1.32 ± 0.25 | -0.932 ± 0.15
46 | UUUAAGCAAUAUUACGAGUG | -1.38 ± 0.14 | -0.204 ± 0.13
47 | AGGCAGCAAUAUUACGAGGC | -3.43 ± 0.29 | -1.67 ± 0.22
48 | GCUGAGCAAUAUUACGAGUC | – | -2.04 ± 0.25
49 | CACCAGCAAUAUUACGGCCU | -2.6 ± 0.16 | -1.93 ± 0.16
50 | GUUCAGCAAUAUUACGGGAC | -2.39 ± 0.18 | -1.16 ± 0.19
